Source: the supplement of paper PMC9112550, “Optimization of the antimicrobial peptide Bac7 by deep mutational scanning” (BMC Biology, 2022)

System: Escherichia coli TOP10
Assay: shrunken log2 fold change of peptide-encoding DNA abundance (4.5 h post-induction vs induction); higher = less antimicrobial activity (less host growth inhibition)
Details: time post-induction: 4.5 h; library: site-saturation at positions 5, 18, 19, 20
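Also: peptides expressed intracellularly from a pBAD plasmid library in pooled LB shake-flask culture, induced with 0.3% L-arabinose, DNA abundance read by NGS, three biological replicates, DESeq2 with apeglm shrinkage.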

Row | Sequence | shrunken log2 fold change
1 | RRIRTRPPRLPRPRPRPGGPPRP | 0.257
2 | RRIRRRPPRLPRPRPRPLRVPRP | 0.966
3 | RRIRPRPPRLPRPRPRPNFEPRP | 0.275
4 | RRIRTRPPRLPRPRPRPINDPRP | -0.293
5 | RRIRMRPPRLPRPRPRPKQTPRP | 3.33
6 | RRIRVRPPRLPRPRPRPFVFPRP | -0.0359
7 | RRIRGRPPRLPRPRPRPILNPRP | -0.0611
8 | RRIRLRPPRLPRPRPRPLGFPRP | 0.38
9 | RRIRFRPPRLPRPRPRPNTIPRP | -0.409
10 | RRIRERPPRLPRPRPRPYMAPRP | -0.137
11 | RRIRSRPPRLPRPRPRPIYTPRP | -0.548
12 | RRIRVRPPRLPRPRPRPYFWPRP | -0.395
13 | RRIRRRPPRLPRPRPRPMAPPRP | 0.665
14 | RRIRQRPPRLPRPRPRPMDRPRP | 0.0291
15 | RRIRYRPPRLPRPRPRPYFEPRP | -0.58
16 | RRIRYRPPRLPRPRPRPIPNPRP | -0.336
17 | RRIRDRPPRLPRPRPRPLIQPRP | 0.365
18 | RRIRARPPRLPRPRPRPITDPRP | -0.0703
19 | RRIRPRPPRLPRPRPRPRIIPRP | -0.18
20 | RRIRFRPPRLPRPRPRPVFNPRP | -0.461
21 | RRIRERPPRLPRPRPRPHLNPRP | -0.434
22 | RRIRFRPPRLPRPRPRPGDIPRP | 0.0113
23 | RRIRVRPPRLPRPRPRPKGNPRP | 0.143
24 | RRIRWRPPRLPRPRPRPEEGPRP | -0.00968
25 | RRIRTRPPRLPRPRPRPSNHPRP | -0.666

Row | Sequence | shrunken log2 fold change
26 | RRIRDRPPRLPRPRPRPSNSPRP | -0.365
27 | RRIRCRPPRLPRPRPRPTWPPRP | 0.371
28 | RRIRSRPPRLPRPRPRPGVAPRP | 0.42
29 | RRIRDRPPRLPRPRPRPLVHPRP | 0.265
30 | RRIRTRPPRLPRPRPRPTTVPRP | -0.271
31 | RRIRNRPPRLPRPRPRPIKKPRP | 0.149
32 | RRIRKRPPRLPRPRPRPPADPRP | 0.563
33 | RRIRRRPPRLPRPRPRPWPGPRP | 0.287
34 | RRIRGRPPRLPRPRPRPVNFPRP | 0.44
35 | RRIRIRPPRLPRPRPRPSWMPRP | -0.562
36 | RRIRARPPRLPRPRPRPGCDPRP | 0.78
37 | RRIRVRPPRLPRPRPRPPTGPRP | 0.245
38 | RRIRFRPPRLPRPRPRPESSPRP | 0.113
39 | RRIRMRPPRLPRPRPRPWHHPRP | -0.0514
40 | RRIRTRPPRLPRPRPRPVRNPRP | 0.509
41 | RRIRGRPPRLPRPRPRPSRSPRP | 0.253
42 | RRIRVRPPRLPRPRPRPIKHPRP | -0.505
43 | RRIRPRPPRLPRPRPRPFWMPRP | -0.00291
44 | RRIRCRPPRLPRPRPRPVKPPRP | 0.477
45 | RRIRKRPPRLPRPRPRPEGPPRP | 0.447
46 | RRIRFRPPRLPRPRPRPNGCPRP | -0.0256
47 | RRIRKRPPRLPRPRPRPILEPRP | 0.261
48 | RRIRRRPPRLPRPRPRPGTMPRP | 0.186
49 | RRIRKRPPRLPRPRPRPWQQPRP | 0.608
50 | RRIRIRPPRLPRPRPRPPWYPRP | -0.394

Row | Sequence | shrunken log2 fold change
51 | RRIRIRPPRLPRPRPRPDCTPRP | 0.0385
52 | RRIRLRPPRLPRPRPRPTEMPRP | 0.037
53 | RRIRGRPPRLPRPRPRPLRNPRP | 1.03
54 | RRIRYRPPRLPRPRPRPRMKPRP | -0.241
55 | RRIRHRPPRLPRPRPRPDCNPRP | -0.18
56 | RRIRNRPPRLPRPRPRPHLIPRP | -0.00549
57 | RRIRERPPRLPRPRPRPGELPRP | -0.26
58 | RRIRHRPPRLPRPRPRPARYPRP | 0.0518
59 | RRIRKRPPRLPRPRPRPVKCPRP | 0.105
60 | RRIRDRPPRLPRPRPRPIWPPRP | 0.0998
61 | RRIRERPPRLPRPRPRPEKNPRP | -0.126
62 | RRIRLRPPRLPRPRPRPKYPPRP | 0.0464
63 | RRIRVRPPRLPRPRPRPEDKPRP | -0.00975
64 | RRIRNRPPRLPRPRPRPAVEPRP | -0.0887
65 | RRIRARPPRLPRPRPRPKWKPRP | -0.291
66 | RRIRERPPRLPRPRPRPIMPPRP | -0.356
67 | RRIRHRPPRLPRPRPRPAKMPRP | 0.0344
68 | RRIRLRPPRLPRPRPRPTGCPRP | 0.19
69 | RRIRERPPRLPRPRPRPAWEPRP | 0.506
70 | RRIRIRPPRLPRPRPRPTASPRP | 0.132
71 | RRIRNRPPRLPRPRPRPHDVPRP | -0.0113
72 | RRIRYRPPRLPRPRPRPYWEPRP | -0.0328
73 | RRIRMRPPRLPRPRPRPPAEPRP | 3.68
74 | RRIRLRPPRLPRPRPRPVTIPRP | 0.0221
75 | RRIRCRPPRLPRPRPRPFQIPRP | 0.00581

Row | Sequence | shrunken log2 fold change
76 | RRIRMRPPRLPRPRPRPPPIPRP | 1.47
77 | RRIRSRPPRLPRPRPRPHECPRP | -0.0285
78 | RRIRLRPPRLPRPRPRPVGAPRP | 0.349
79 | RRIRIRPPRLPRPRPRPVSWPRP | -0.171
80 | RRIRARPPRLPRPRPRPYCTPRP | -0.0621
81 | RRIRDRPPRLPRPRPRPCEQPRP | 0.0856
82 | RRIRPRPPRLPRPRPRPCGDPRP | 0.078
83 | RRIRPRPPRLPRPRPRPATLPRP | 0.223
84 | RRIRHRPPRLPRPRPRPCSIPRP | -0.0189
85 | RRIRFRPPRLPRPRPRPQFHPRP | -0.839
86 | RRIRYRPPRLPRPRPRPVEEPRP | -0.32
87 | RRIRVRPPRLPRPRPRPVCTPRP | 0.165
88 | RRIRSRPPRLPRPRPRPNEYPRP | -1.02
89 | RRIRMRPPRLPRPRPRPVNGPRP | -0.0577
90 | RRIRHRPPRLPRPRPRPSKMPRP | -0.858
91 | RRIRCRPPRLPRPRPRPVGCPRP | 0.204
92 | RRIRRRPPRLPRPRPRPCFRPRP | -0.00559
93 | RRIRTRPPRLPRPRPRPTCVPRP | -0.308
94 | RRIRYRPPRLPRPRPRPELYPRP | -0.106
95 | RRIRIRPPRLPRPRPRPMMIPRP | -0.0366
96 | RRIRIRPPRLPRPRPRPFNFPRP | -0.31
97 | RRIRCRPPRLPRPRPRPEWSPRP | 0.144
98 | RRIRIRPPRLPRPRPRPQSVPRP | -0.295
99 | RRIRNRPPRLPRPRPRPESFPRP | -0.0337
100 | RRIRHRPPRLPRPRPRPSTEPRP | -0.168

Row | Sequence | shrunken log2 fold change
101 | RRIRYRPPRLPRPRPRPLISPRP | -0.596
102 | RRIRPRPPRLPRPRPRPKKTPRP | -0.107
103 | RRIRNRPPRLPRPRPRPPLAPRP | 0.697
104 | RRIRNRPPRLPRPRPRPTYEPRP | -0.172
105 | RRIRWRPPRLPRPRPRPDFNPRP | -0.0747
106 | RRIRIRPPRLPRPRPRPTMHPRP | -0.443
107 | RRIRQRPPRLPRPRPRPTPVPRP | 0.286
108 | RRIRQRPPRLPRPRPRPKDCPRP | -0.00225
109 | RRIRMRPPRLPRPRPRPMYIPRP | -0.0178
110 | RRIRARPPRLPRPRPRPRKRPRP | 0.778
111 | RRIRERPPRLPRPRPRPNMWPRP | -0.647
112 | RRIRSRPPRLPRPRPRPPEMPRP | 0.265
113 | RRIRQRPPRLPRPRPRPCLSPRP | -0.383
114 | RRIRFRPPRLPRPRPRPTGCPRP | 0.125
115 | RRIRTRPPRLPRPRPRPEAMPRP | 0.0163
116 | RRIRVRPPRLPRPRPRPDMTPRP | -0.0435
117 | RRIRPRPPRLPRPRPRPHDSPRP | -0.134
118 | RRIRYRPPRLPRPRPRPTWLPRP | 0.00076
119 | RRIRTRPPRLPRPRPRPKVGPRP | 0.2
120 | RRIRLRPPRLPRPRPRPMNAPRP | -0.446
121 | RRIRFRPPRLPRPRPRPSLGPRP | 0.0257
122 | RRIRTRPPRLPRPRPRPCVQPRP | 0.0274
123 | RRIRHRPPRLPRPRPRPRMDPRP | 0.0986
124 | RRIRRRPPRLPRPRPRPMSHPRP | 0.142
125 | RRIRSRPPRLPRPRPRPLYHPRP | -0.599
